Like-named read-outs stand apart in the source and are kept apart here.
Key:
Ol1WSCP [1] = assay: SEC
Ol1WSCP [2] = assay: SEC; remark: listed apart in the source

Ol1WSCP (natural protein)
stoichiometry N (Ol1WSCP [1]): 4 | stoichiometry N (Ol1WSCP [2]): 4

Reference: PMC7054047
